Experimental data reported in US20260151508A1 (BEAM THERAPEUTICS, published 2026).

Columns and labels:
[1] = molecular target: T1, PiM (wild type) human alpha-1 antitrypsin (AAT) protein, bacterially expressed (human, UniProt P01009 25-418); test: in vitro neutrophil elastase binding assay, bacterially expressed AAT
T1 construct: The signal peptide is left out here; also called PiM (WT) AAT; wild-type AAT

[2] = molecular target: T2, PiM+Bystander (D365G) human alpha-1 antitrypsin (AAT) protein, bacterially expressed (human, UniProt P01009 25-418); test: as above
T2 construct: Wild-type AAT altered to include D365G; also called D365G AAT protein; AAT protein with a D365G alteration
T2 sequence (P01009 25-418 D365G): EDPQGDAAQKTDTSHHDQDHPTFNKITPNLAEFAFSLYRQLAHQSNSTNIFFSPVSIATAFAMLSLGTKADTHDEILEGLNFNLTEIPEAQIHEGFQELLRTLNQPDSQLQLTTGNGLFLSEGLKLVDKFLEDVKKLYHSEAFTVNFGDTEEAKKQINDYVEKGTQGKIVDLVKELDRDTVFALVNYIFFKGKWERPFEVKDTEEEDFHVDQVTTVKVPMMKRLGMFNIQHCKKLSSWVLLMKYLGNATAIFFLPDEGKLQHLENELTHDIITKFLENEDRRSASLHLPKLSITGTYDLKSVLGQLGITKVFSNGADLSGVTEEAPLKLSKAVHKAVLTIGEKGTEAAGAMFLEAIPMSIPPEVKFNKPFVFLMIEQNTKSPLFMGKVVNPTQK

T1 sequence (P01009 25-418): as the sequence (P01009 25-418 D365G) above, with G341D counted along it

B1: human neutrophil elastase (enzyme, UniProt P08246 30-247, looked up)
chain: IVGGRRARPHAWPFMVSLQLRGGHFCGATLIAPNFVMSAAHCVANVNVRAVRVVLGAHNLSRREPTRQVFAVQRIFENGYDPVNLLNDIVILQLNGSATINANVQVAQLPAQGRRLGNGVQCLAMGWGLLGRNRGIASVLQELNVTVVTSLCRRSNVCTLVRGRQAGVCFGDSGSPLVCNGLIHGIASFVRGGCASGLYPDAFAPVAQFVNWIDSIIQ
notes: also called HNE
Does B1 bind [1]?
Result: binds

Does B1 bind [2]?
Result: binds
